Results reported in patent US20210388105A1 (ELPISCIENCE SUZHOU BIOPHARMA, published 2021).

How the values were obtained:
Assay in all cases: FACS, mutant-EGFP on HEK293F cells
[1] = target: T1, KW27-13 (human CD39 mutant, C-terminal EGFP) (human, UniProt P49961 1-510)
T1 construct: expressed on HEK293F cells; not shown: C-terminal EGFP fusion (vector pCMV3-GFPSpark)
T1 chain: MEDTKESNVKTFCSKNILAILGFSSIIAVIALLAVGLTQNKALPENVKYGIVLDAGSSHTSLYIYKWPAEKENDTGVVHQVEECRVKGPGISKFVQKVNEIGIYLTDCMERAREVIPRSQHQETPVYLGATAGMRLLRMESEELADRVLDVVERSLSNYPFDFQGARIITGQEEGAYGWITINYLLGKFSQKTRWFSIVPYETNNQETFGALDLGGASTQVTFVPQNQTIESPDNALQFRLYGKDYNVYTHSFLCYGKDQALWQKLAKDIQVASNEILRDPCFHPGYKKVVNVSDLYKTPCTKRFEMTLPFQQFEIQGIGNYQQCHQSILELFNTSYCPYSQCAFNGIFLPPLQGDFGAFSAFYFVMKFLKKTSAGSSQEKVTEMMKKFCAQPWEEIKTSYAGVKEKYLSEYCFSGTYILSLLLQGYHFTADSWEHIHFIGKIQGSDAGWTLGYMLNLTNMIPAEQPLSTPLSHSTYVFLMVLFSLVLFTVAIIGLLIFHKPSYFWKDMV
Experimental: (§1) Briefly, the human CD39 mutants were generated by gene synthesis and then cloned into an expression vector pCMV3-GFPSpark. The vectors containing the validated mutated sequences were prepared and transfected into HEK293F cells. Three days post transfection, the cells were collected to testing EGFP for transgene expression. A range of dosages of antibodies (start from 100 nM, 3-folds dilution, 11 points) were tested on the 20 generated mutants and stained by AlexFluor647 labelled anti-hIgG by FACS. Antibody binding was descripted as relative binding which is derived from AlexFluor647 intensity divided by GFP intensity.

[2] = target: T2, KW27-3 (human CD39 mutant, C-terminal EGFP) (human, UniProt P49961 1-510)
T2 construct: expressed on HEK293F cells; not shown: C-terminal EGFP fusion (vector pCMV3-GFPSpark)
T2 chain: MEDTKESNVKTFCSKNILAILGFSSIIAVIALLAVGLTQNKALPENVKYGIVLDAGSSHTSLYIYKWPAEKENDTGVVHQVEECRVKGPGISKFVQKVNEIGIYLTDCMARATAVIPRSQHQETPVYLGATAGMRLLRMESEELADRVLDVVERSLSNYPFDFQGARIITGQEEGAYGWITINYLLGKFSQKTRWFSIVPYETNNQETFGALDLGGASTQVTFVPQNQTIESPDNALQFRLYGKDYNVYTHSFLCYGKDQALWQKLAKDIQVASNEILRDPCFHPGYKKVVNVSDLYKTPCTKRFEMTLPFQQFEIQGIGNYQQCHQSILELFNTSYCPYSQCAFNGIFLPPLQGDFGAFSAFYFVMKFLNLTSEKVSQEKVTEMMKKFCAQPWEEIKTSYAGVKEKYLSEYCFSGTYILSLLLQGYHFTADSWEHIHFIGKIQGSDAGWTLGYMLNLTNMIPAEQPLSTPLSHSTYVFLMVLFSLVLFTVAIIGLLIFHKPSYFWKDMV
Experimental: as §1

[3] = target: T3, KW27-17 (human CD39 mutant, C-terminal EGFP) (human, UniProt P49961 1-510)
T3 construct: expressed on HEK293F cells; not shown: C-terminal EGFP fusion (vector pCMV3-GFPSpark)
T3 chain: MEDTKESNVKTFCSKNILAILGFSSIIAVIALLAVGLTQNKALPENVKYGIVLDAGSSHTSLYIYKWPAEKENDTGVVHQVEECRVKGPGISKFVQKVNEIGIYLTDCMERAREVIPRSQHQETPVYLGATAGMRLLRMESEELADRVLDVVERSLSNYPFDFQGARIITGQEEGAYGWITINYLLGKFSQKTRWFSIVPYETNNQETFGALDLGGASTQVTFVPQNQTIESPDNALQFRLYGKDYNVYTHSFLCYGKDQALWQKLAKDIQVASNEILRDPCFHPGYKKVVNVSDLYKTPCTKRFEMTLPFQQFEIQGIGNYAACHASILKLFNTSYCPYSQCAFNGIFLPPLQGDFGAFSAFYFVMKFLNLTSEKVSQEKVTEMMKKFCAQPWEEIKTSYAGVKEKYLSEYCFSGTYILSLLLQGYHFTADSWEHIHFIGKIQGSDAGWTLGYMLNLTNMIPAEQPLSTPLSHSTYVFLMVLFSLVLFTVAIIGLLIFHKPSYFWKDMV
Experimental: as §1

[4] = target: T4, KW27-11 (human CD39 mutant, C-terminal EGFP) (human, UniProt P49961 1-510)
T4 construct: expressed on HEK293F cells; 'D3565' as printed is read as D356S; not shown: C-terminal EGFP fusion (vector pCMV3-GFPSpark)
T4 chain: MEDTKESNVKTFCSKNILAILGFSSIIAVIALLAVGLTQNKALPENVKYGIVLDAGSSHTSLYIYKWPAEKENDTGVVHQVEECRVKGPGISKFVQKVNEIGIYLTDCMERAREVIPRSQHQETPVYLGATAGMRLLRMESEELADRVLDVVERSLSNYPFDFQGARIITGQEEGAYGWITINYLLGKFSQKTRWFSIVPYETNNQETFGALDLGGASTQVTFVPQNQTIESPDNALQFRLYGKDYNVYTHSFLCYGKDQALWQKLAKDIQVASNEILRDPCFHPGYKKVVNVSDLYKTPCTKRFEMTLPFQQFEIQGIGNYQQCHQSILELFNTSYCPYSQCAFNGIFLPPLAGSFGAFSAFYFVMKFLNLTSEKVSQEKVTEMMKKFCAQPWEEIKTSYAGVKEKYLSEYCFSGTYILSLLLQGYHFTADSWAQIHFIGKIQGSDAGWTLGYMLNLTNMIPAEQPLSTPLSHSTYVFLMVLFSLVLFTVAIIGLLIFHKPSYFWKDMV
Experimental: as §1

Measured: binding result

B1: Antibody 9-8B (antibody, V domains shown)
VH: QIQLVQSGPELKKPGETVKISCKASGYTFTHYGMNWVKQAPGKGLKWMGWINTYTGELTYADDFKGRFAFSLETSASTAYLQINNLKNEDTATYFCARRAYYRYDYVMDYWGQGTSVTVSS
VL: DIVMTQSQKFMSTSVGDRVSVTCKASHNVGTNVAWYQQKPGQSPKALIYSASYRYSGVPGRFTGSGSGTDFTLTISNVQSEDLAEYFCHQYNNYPYTFGGGTKLEIK
binds: all assays above

B2: hu23.H5L5 (antibody, V domains shown)
VH: QVQLVQSGAEVKKPGASVKVSCKASGYNLKDTFLHWVRQAPGQGLEWMGRIDPANGNIKYDPKFQGRVTITADTSANTAYMELISLRSEDTAVYYCANSPYYYGSGYRIFDVWGQGTTVTVSS
VL: QIVLTQSPATLSLSPGERATLSCSAFSSVNYMHWYQQKPGQAPRLLIYTTSNLASGIPTRFSGSGSGTSYTLTISSLEPEDFAVYYCQQRSTYPFTFGQGTKLEIK
notes: humanized c23
binds: all assays above

B3: Antibody T895 (antibody, V domains shown)
VH: EVQLQQSGPELVKPGASVKMSCKASGYTFTDYNMHWVKQSHGRTLEWIGYIVPLNGGSTFNQKFKGRATLTVNTSSRTAYMELRSLTSEDSAAYYCARGGTRFAYWGQGTLVTVSA
VL: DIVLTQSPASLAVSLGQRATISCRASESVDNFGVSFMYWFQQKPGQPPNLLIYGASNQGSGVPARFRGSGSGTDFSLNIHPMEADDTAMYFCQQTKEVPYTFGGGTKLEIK
notes: also called 31895
binds: all assays above

B4: c34 (antibody, V domains shown)
VH: EIQVQQSGPELVKPGASVKVSCKASGYSFTDYNMYWVKQSHGKSLEWIGFIDPYNGYTSYNQKFKGKATLTIDKSSSTAFMHLNSLTSEDSAVYYCAIYGYDDAYYFDYWGQGTTLTVSS
VL: QIVLTQSPAIMSASPGEKVTITCSATSSVSYMHWFRQKPGTSPKLWIYSTSNLASGVPARFSGSGSGTSYSLTISRMAAEDAATYYCQQRITYPFTFGSGTKLEIT
notes: its making is not described; also called chimeric antibody c34
binds: all assays above

B5: c35 (antibody, V domains shown)
VH: EVRLQQSGAELVKPGASVKLSCTASGFNIEDTYVHWMKQRPEQGLEWIGRIDPAIDNSKYDPKFQGKATITAVSSSNTAYLQLSSLTSEDTAVYYCALYDGYNVYAMDYWGQGTSVTVSS
VL: DIVMTQAAFSNPVTLGTSASISCRSSKNLLHSNGITYLYWYLQRPGQSPQLLIYRASTLASGVPNRFSGSESGTDFTLRISRVEAEDVGVYYCAQLLELPHTFGGGTKLEIK
notes: its making is not described; also called chimeric antibody c35
binds: all assays above
